Here are results for 10 molecules from PMC6007875 (Nature, 2018).

The labels stand for the following.
B2: FGFR1c ligand-binding domain (FGFR1c^ecto) (domain or fragment, human)
chain: DNTKPNRMPVAPYWTSPEKMEKKLHAVPAAKTVKFKCPSSGTPNPTLRWLKNGKEFKPDHRIGGYKVRYATWSIIMDSVVPSDKGNYTCIVENEYGSINHTYQLDVVERSPHRPILQAGLPANKTVALGSNVEFMCKVYSDPQPHIQWLKHIEVNGSKIGPDNLPYVQILKTAGVNTTDKEMEVLHLRNVSFEDAGEYTCLAGNSIGLSHHSAWLTVLEALEER
B3: FGF23^ΔSRBS (M149A/N150A/P151A) (ligand, human, UniProt Q9GZV9 25-251, looked up)
chain: YPNASPLLGSSWGGLIHLYTATARNSYHLQIHKNGHVDGAPHQTIYSALMIRSEDAGFVVITGVMSRRYLCMDFRGNIFGSHYFDPENCRFQHQTLENGYDVYHSPQYHFLVSLGRAKRAFLPGAAAPPYSQFLSRRNEIPLIHFNTPIPRRHTRSAEDDSERDPLNVLKPRARMTPAPASCSQELPSAEDNSPMASDPLGVVRGGRVNTHAGGTGPEGCRPFAKFI
B4: FGF23^ΔHBS (R140A/R143A) (ligand, human, UniProt Q9GZV9 25-251, looked up)
chain: YPNASPLLGSSWGGLIHLYTATARNSYHLQIHKNGHVDGAPHQTIYSALMIRSEDAGFVVITGVMSRRYLCMDFRGNIFGSHYFDPENCRFQHQTLENGYDVYHSPQYHFLVSLGAAKAAFLPGMNPPPYSQFLSRRNEIPLIHFNTPIPRRHTRSAEDDSERDPLNVLKPRARMTPAPASCSQELPSAEDNSPMASDPLGVVRGGRVNTHAGGTGPEGCRPFAKFI

One experiment concerns the target FGFR1c (Homo sapiens) (UniProt P11362). As to conditions: cited from earlier work.
In experiment [1] the target is T1, shed extracellular domain of αKlotho (αKlotho^ecto) (human, UniProt Q9UEF7 34-981).
T1 sequence (looked up): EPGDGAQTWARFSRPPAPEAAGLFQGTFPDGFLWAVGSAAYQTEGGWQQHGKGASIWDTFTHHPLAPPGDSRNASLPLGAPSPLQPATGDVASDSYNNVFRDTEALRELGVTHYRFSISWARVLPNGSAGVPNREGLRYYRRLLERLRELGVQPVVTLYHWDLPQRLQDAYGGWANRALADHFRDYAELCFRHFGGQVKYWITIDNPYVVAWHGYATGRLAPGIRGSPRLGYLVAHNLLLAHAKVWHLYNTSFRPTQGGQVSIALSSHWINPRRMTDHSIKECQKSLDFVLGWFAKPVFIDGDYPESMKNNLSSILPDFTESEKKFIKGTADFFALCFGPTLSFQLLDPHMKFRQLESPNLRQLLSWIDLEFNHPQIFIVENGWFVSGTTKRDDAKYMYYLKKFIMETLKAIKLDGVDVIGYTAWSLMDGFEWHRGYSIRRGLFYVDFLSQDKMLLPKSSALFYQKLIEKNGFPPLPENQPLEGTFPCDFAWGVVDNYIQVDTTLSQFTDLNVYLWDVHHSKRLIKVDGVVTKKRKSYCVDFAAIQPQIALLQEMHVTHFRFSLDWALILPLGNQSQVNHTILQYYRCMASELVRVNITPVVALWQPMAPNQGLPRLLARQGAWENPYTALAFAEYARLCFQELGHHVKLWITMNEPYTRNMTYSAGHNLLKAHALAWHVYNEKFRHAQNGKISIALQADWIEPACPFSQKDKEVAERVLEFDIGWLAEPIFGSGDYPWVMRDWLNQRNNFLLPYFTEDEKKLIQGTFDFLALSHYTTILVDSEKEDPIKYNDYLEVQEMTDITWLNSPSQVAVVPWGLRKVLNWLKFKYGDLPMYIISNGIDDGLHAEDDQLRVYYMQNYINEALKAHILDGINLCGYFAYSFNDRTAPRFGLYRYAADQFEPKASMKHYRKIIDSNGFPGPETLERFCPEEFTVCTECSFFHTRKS
The experiment in a line: SEC-MALS. For orientation: In gel filtration, larger molecules generally elute earlier.

Experiment [2] addresses B2. The experiment in a line: SEC-MALS.
The target in experiment [3] is B3. The experiment in a line: SEC-MALS.
For the experiment “FGF23^ΔHBS (R140A/R143A)”, the target named is B4. The experiment in a line: SEC-MALS.

FGFR1c (Homo sapiens), sequence (P11362 22-376): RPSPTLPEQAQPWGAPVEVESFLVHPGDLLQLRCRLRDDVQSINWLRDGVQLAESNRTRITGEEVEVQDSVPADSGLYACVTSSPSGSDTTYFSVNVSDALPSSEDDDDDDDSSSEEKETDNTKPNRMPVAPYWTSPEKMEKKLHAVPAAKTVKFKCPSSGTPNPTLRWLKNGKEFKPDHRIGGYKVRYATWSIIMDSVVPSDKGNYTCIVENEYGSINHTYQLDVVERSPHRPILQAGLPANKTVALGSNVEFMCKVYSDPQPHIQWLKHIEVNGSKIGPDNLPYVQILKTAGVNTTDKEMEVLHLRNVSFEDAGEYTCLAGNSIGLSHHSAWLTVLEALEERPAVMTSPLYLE

Usually Kd stands for a measure of binding affinity in units of concentration. αKlotho (from UniProt Q9UEF7): the Kd with FGFR1c (Homo sapiens) was 0.072 µM.

B1: fibroblast growth factor 23 (FGF23) (ligand, human, UniProt Q9GZV9 25-251, looked up)
chain: YPNASPLLGSSWGGLIHLYTATARNSYHLQIHKNGHVDGAPHQTIYSALMIRSEDAGFVVITGVMSRRYLCMDFRGNIFGSHYFDPENCRFQHQTLENGYDVYHSPQYHFLVSLGRAKRAFLPGMNPPPYSQFLSRRNEIPLIHFNTPIPRRHTRSAEDDSERDPLNVLKPRARMTPAPASCSQELPSAEDNSPMASDPLGVVRGGRVNTHAGGTGPEGCRPFAKFI
One may read the stoichiometry N as the number of molecules, sites or subunits per partner or assembly. As to B1, the “stoichiometry N” value in experiment [1] and in experiment [2] was 1 in each case.

As for B2, the binding result (in experiment [3]; with FGF23^ΔHBS (R140A/R143A)) was “binds” throughout. Moreover, the “stoichiometry N” value in experiment [1] came out at 1.

Regarding B3, the binding result in experiment [1] was “binds”.

Regarding B4, in experiment [1], the binding result is listed as “binds”.

B5: FGFR1c^ΔHBS (K160Q/K163Q), ecto (domain or fragment, human)
chain: DNTKPNRMPVAPYWTSPEQMEQKLHAVPAAKTVKFKCPSSGTPNPTLRWLKNGKEFKPDHRIGGYKVRYATWSIIMDSVVPSDKGNYTCIVENEYGSINHTYQLDVVERSPHRPILQAGLPANKTVALGSNVEFMCKVYSDPQPHIQWLKHIEVNGSKIGPDNLPYVQILKTAGVNTTDKEMEVLHLRNVSFEDAGEYTCLAGNSIGLSHHSAWLTVLEALEER
B5: the binding result in experiment [1] was “binds”.

B6: FGFR1c^ΔSLBS’ (V221D), ecto (domain or fragment, human)
chain: DNTKPNRMPVAPYWTSPEKMEKKLHAVPAAKTVKFKCPSSGTPNPTLRWLKNGKEFKPDHRIGGYKVRYATWSIIMDSVDPSDKGNYTCIVENEYGSINHTYQLDVVERSPHRPILQAGLPANKTVALGSNVEFMCKVYSDPQPHIQWLKHIEVNGSKIGPDNLPYVQILKTAGVNTTDKEMEVLHLRNVSFEDAGEYTCLAGNSIGLSHHSAWLTVLEALEER
On to B6, for which the binding result in experiment [1] was “binds”.

B7: FGFR1c^ΔHBS’ (K207Q/R209Q), ecto (domain or fragment, human)
chain: DNTKPNRMPVAPYWTSPEKMEKKLHAVPAAKTVKFKCPSSGTPNPTLRWLKNGKEFKPDHRIGGYQVQYATWSIIMDSVVPSDKGNYTCIVENEYGSINHTYQLDVVERSPHRPILQAGLPANKTVALGSNVEFMCKVYSDPQPHIQWLKHIEVNGSKIGPDNLPYVQILKTAGVNTTDKEMEVLHLRNVSFEDAGEYTCLAGNSIGLSHHSAWLTVLEALEER
As for B7, the binding result in experiment [1] was “binds”.

B8: FGFR1c^ΔSLBS (I203E), ecto (domain or fragment, human)
chain: DNTKPNRMPVAPYWTSPEKMEKKLHAVPAAKTVKFKCPSSGTPNPTLRWLKNGKEFKPDHREGGYKVRYATWSIIMDSVVPSDKGNYTCIVENEYGSINHTYQLDVVERSPHRPILQAGLPANKTVALGSNVEFMCKVYSDPQPHIQWLKHIEVNGSKIGPDNLPYVQILKTAGVNTTDKEMEVLHLRNVSFEDAGEYTCLAGNSIGLSHHSAWLTVLEALEER
Take B8: the binding result in experiment [1] was “binds”.

B9: FGFR1c^ΔRRBS (A171D), ecto (domain or fragment, human)
chain: DNTKPNRMPVAPYWTSPEKMEKKLHAVPADKTVKFKCPSSGTPNPTLRWLKNGKEFKPDHRIGGYKVRYATWSIIMDSVVPSDKGNYTCIVENEYGSINHTYQLDVVERSPHRPILQAGLPANKTVALGSNVEFMCKVYSDPQPHIQWLKHIEVNGSKIGPDNLPYVQILKTAGVNTTDKEMEVLHLRNVSFEDAGEYTCLAGNSIGLSHHSAWLTVLEALEER
With B9, the binding result in experiment [1] was “binds”.
